Reference: the supplement of paper PMC9112550, “Optimization of the antimicrobial peptide Bac7 by deep mutational scanning” (BMC Biology, 2022)

System: Escherichia coli TOP10
Assay: shrunken log2 fold change of peptide-encoding DNA abundance (4.5 h post-induction vs induction); higher = less antimicrobial activity (less host growth inhibition)
Conditions: time post-induction: 4.5 h; library: site-saturation at positions 5, 18, 19, 20
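Note: peptides expressed intracellularly from a pBAD plasmid library in pooled LB shake-flask culture, induced with 0.3% L-arabinose, DNA abundance read by NGS, three biological replicates, DESeq2 with apeglm shrinkage.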

| Sequence | shrunken log2 fold change |
| --- | --- |
| RRIRNRPPRLPRPRPRPFARPRP | -0.113 |
| RRIRWRPPRLPRPRPRPVHVPRP | 0.109 |
| RRIRMRPPRLPRPRPRPVWVPRP | 0.0789 |
| RRIRLRPPRLPRPRPRPIFEPRP | -0.0366 |
| RRIRNRPPRLPRPRPRPIPWPRP | -0.102 |
| RRIRARPPRLPRPRPRPFSRPRP | -0.145 |
| RRIRIRPPRLPRPRPRPRPIPRP | 0.0745 |
| RRIRNRPPRLPRPRPRPERDPRP | 0.157 |
| RRIRARPPRLPRPRPRPILDPRP | 0.229 |
| RRIRRRPPRLPRPRPRPWPYPRP | 0.131 |
| RRIRWRPPRLPRPRPRPVYTPRP | -0.242 |
| RRIRWRPPRLPRPRPRPYIFPRP | -0.242 |
| RRIRVRPPRLPRPRPRPQHFPRP | 0.0726 |
| RRIRQRPPRLPRPRPRPKAEPRP | 0.45 |
| RRIRHRPPRLPRPRPRPRALPRP | 0.152 |
| RRIRPRPPRLPRPRPRPFYGPRP | -0.142 |
| RRIRERPPRLPRPRPRPPHMPRP | -0.152 |
| RRIRWRPPRLPRPRPRPCPMPRP | -0.0512 |
| RRIRMRPPRLPRPRPRPVLAPRP | 0.493 |
| RRIRQRPPRLPRPRPRPICYPRP | 0.0933 |
| RRIRVRPPRLPRPRPRPMKNPRP | -0.104 |
| RRIRWRPPRLPRPRPRPTDCPRP | 0.088 |
| RRIRERPPRLPRPRPRPNRVPRP | -0.00226 |
| RRIRKRPPRLPRPRPRPPLWPRP | 0.931 |
| RRIRQRPPRLPRPRPRPGKSPRP | -0.103 |

| Sequence | shrunken log2 fold change |
| --- | --- |
| RRIRVRPPRLPRPRPRPNDVPRP | -0.116 |
| RRIRLRPPRLPRPRPRPETTPRP | 0.182 |
| RRIRIRPPRLPRPRPRPQLRPRP | -0.203 |
| RRIRCRPPRLPRPRPRPRNHPRP | -0.0709 |
| RRIRNRPPRLPRPRPRPRGQPRP | 0.114 |
| RRIRYRPPRLPRPRPRPQITPRP | -0.918 |
| RRIRWRPPRLPRPRPRPKERPRP | 0.0355 |
| RRIRQRPPRLPRPRPRPTGTPRP | 0.285 |
| RRIRQRPPRLPRPRPRPHNVPRP | -0.0684 |
| RRIRNRPPRLPRPRPRPMQDPRP | -0.0611 |
| RRIRSRPPRLPRPRPRPFSYPRP | -0.0241 |
| RRIRHRPPRLPRPRPRPTVMPRP | -0.0285 |
| RRIRPRPPRLPRPRPRPGNNPRP | -0.103 |
| RRIRERPPRLPRPRPRPEHRPRP | -0.0185 |
| RRIRLRPPRLPRPRPRPQVLPRP | -0.0429 |
| RRIRVRPPRLPRPRPRPPSLPRP | 1.99 |
| RRIRIRPPRLPRPRPRPGRKPRP | 0.0417 |
| RRIRFRPPRLPRPRPRPQQKPRP | 0.0925 |
| RRIRMRPPRLPRPRPRPRRMPRP | 0.73 |
| RRIRRRPPRLPRPRPRPSHAPRP | 0.232 |
| RRIRKRPPRLPRPRPRPVMTPRP | 0.0351 |
| RRIRKRPPRLPRPRPRPIRMPRP | -0.0295 |
| RRIRCRPPRLPRPRPRPHFPPRP | -0.0893 |
| RRIRVRPPRLPRPRPRPGCGPRP | 0.679 |
| RRIRVRPPRLPRPRPRPHHLPRP | -0.24 |

| Sequence | shrunken log2 fold change |
| --- | --- |
| RRIRGRPPRLPRPRPRPFRTPRP | -0.0333 |
| RRIRARPPRLPRPRPRPMHNPRP | -0.00444 |
| RRIRVRPPRLPRPRPRPLTAPRP | 0.106 |
| RRIRLRPPRLPRPRPRPFFIPRP | -0.396 |
| RRIRKRPPRLPRPRPRPEHKPRP | 0.295 |
| RRIRCRPPRLPRPRPRPGTCPRP | -0.143 |
| RRIRCRPPRLPRPRPRPYGFPRP | -0.515 |
| RRIRLRPPRLPRPRPRPTRIPRP | -0.141 |
| RRIRLRPPRLPRPRPRPWMQPRP | 0.0547 |
| RRIRPRPPRLPRPRPRPCWMPRP | -0.126 |
| RRIRFRPPRLPRPRPRPACMPRP | -0.263 |
| RRIRWRPPRLPRPRPRPESKPRP | 0.268 |
| RRIRIRPPRLPRPRPRPNSRPRP | -0.0636 |
| RRIRSRPPRLPRPRPRPKENPRP | -0.0465 |
| RRIRTRPPRLPRPRPRPCAFPRP | -0.0344 |
| RRIRNRPPRLPRPRPRPFIGPRP | -0.0677 |
| RRIRNRPPRLPRPRPRPSEMPRP | -0.0844 |
| RRIRQRPPRLPRPRPRPRVGPRP | 0.71 |
| RRIRWRPPRLPRPRPRPISAPRP | -0.0163 |
| RRIRIRPPRLPRPRPRPWDSPRP | -0.0632 |
| RRIRGRPPRLPRPRPRPKSNPRP | 0.446 |
| RRIRERPPRLPRPRPRPTGHPRP | -0.0413 |
| RRIRSRPPRLPRPRPRPQKCPRP | 0.0984 |
| RRIRARPPRLPRPRPRPSFAPRP | 0.432 |
| RRIRYRPPRLPRPRPRPALGPRP | 0.0458 |

| Sequence | shrunken log2 fold change |
| --- | --- |
| RRIRQRPPRLPRPRPRPCTNPRP | -0.359 |
| RRIRWRPPRLPRPRPRPNWMPRP | -0.11 |
| RRIRKRPPRLPRPRPRPCCDPRP | 0.217 |
| RRIRHRPPRLPRPRPRPQRFPRP | -0.0098 |
| RRIRRRPPRLPRPRPRPHYNPRP | -0.202 |
| RRIRYRPPRLPRPRPRPPPGPRP | 0.909 |
| RRIRDRPPRLPRPRPRPEKLPRP | 0.19 |
| RRIRERPPRLPRPRPRPYTKPRP | -0.277 |
| RRIRHRPPRLPRPRPRPHHSPRP | -0.147 |
| RRIRARPPRLPRPRPRPYDFPRP | -0.772 |
| RRIRQRPPRLPRPRPRPVIRPRP | -0.406 |
| RRIRCRPPRLPRPRPRPAHGPRP | 0.23 |
| RRIRNRPPRLPRPRPRPPMMPRP | 0.0507 |
| RRIRQRPPRLPRPRPRPLQNPRP | 0.139 |
| RRIRKRPPRLPRPRPRPEQIPRP | 0.0375 |
| RRIRDRPPRLPRPRPRPMFHPRP | -0.0543 |
| RRIRWRPPRLPRPRPRPALKPRP | 0.0103 |
| RRIRFRPPRLPRPRPRPPNPPRP | 0.412 |
| RRIRYRPPRLPRPRPRPYQRPRP | -0.00973 |
| RRIRPRPPRLPRPRPRPPRLPRP | 0.406 |
| RRIRWRPPRLPRPRPRPTVHPRP | -0.189 |
| RRIRFRPPRLPRPRPRPPSVPRP | 0.08 |
| RRIRARPPRLPRPRPRPKQLPRP | 0.155 |
| RRIRARPPRLPRPRPRPMKNPRP | 0.0488 |
| RRIRARPPRLPRPRPRPPHSPRP | 0.902 |

| Sequence | shrunken log2 fold change |
| --- | --- |
| RRIRHRPPRLPRPRPRPAEEPRP | 0.175 |
| RRIRYRPPRLPRPRPRPGHTPRP | -0.626 |
| RRIRRRPPRLPRPRPRPWRKPRP | 0.302 |
| RRIRLRPPRLPRPRPRPYGMPRP | -0.0242 |
| RRIRIRPPRLPRPRPRPIYPPRP | -0.304 |
| RRIRVRPPRLPRPRPRPQSAPRP | -0.054 |
| RRIRFRPPRLPRPRPRPGMPPRP | -0.0207 |
| RRIRTRPPRLPRPRPRPFESPRP | 0.0313 |
| RRIRMRPPRLPRPRPRPKQKPRP | 0.0402 |
| RRIRHRPPRLPRPRPRPPYVPRP | -0.0952 |
| RRIRHRPPRLPRPRPRPLPLPRP | 0.0701 |
| RRIRHRPPRLPRPRPRPQIHPRP | -0.46 |
| RRIRMRPPRLPRPRPRPGNYPRP | -0.0658 |
| RRIRSRPPRLPRPRPRPECDPRP | 0.262 |
| RRIRHRPPRLPRPRPRPWYYPRP | -1.47 |
| RRIRCRPPRLPRPRPRPGAIPRP | -0.0334 |
| RRIRYRPPRLPRPRPRPMNQPRP | -0.383 |
| RRIRPRPPRLPRPRPRPEMVPRP | 0.191 |
| RRIRPRPPRLPRPRPRPQQMPRP | -0.00373 |
| RRIRCRPPRLPRPRPRPRADPRP | 0.454 |
| RRIRDRPPRLPRPRPRPAREPRP | 1.06 |
| RRIRPRPPRLPRPRPRPQQHPRP | -0.0726 |
| RRIRPRPPRLPRPRPRPHTIPRP | -0.39 |
| RRIRSRPPRLPRPRPRPQVIPRP | 0.00733 |
| RRIRTRPPRLPRPRPRPCDSPRP | -0.0585 |
